Measured values: patent publication US20160000910A1

Biological target: biotinylated Aβ1-28 peptide
Experiment: ELISA, biotinylated peptide (Anaspec) on streptavidin plate, 10 µg/ml mAb
Details: remark: other sources report otherwise

Chain of biotinylated Aβ1-28 peptide (chain, as listed by the source): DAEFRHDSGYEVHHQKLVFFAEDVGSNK

B1: mouse monoclonal antibody ACI-11-Ab-9 (antibody, V domains shown)
VL: QAVVTQESALTTSPGGTVILTCRSSTGAVTTSNYANWVQEKPDHLFTGLIGGTSNRAPGVPVRFSGSLIGDKAALTITGAQTEDDAMYFCALWYSTHYVFGGGTKVTVL
VH: QVQLQQSDAELVKPGASVKISCKVSGYTFTDHTIHWMKQRPEQGLEWIGYIYPRDGSTKYNEKFKGKATLTADKSSSTAYMQLNSLTSEDSAVYFCARDYGYAFDYWGQGTTLTVSS
modifications: here or on the partner: biotinylated (position not given)
With B1 the O.D. after background subtraction (mean) was 0.53 O.D.
